Laboratory results as given in patent US20240226314A1 (Sanofi, published 2024).
Where “and” joins values, the source holds several entries; their conditions need not be identical. Equal entries are not always repeated. Where two headings read alike, the source gives them in different places.

T1: His-tagged cynomolgus monkey TfR ectodomain (cyTFRC_89_760; mature protein) (cynomolgus monkey (Macaca fascicularis), UniProt Q5RDH6 89-760 (Pongo abelii entry))
T1 construct: also called cTfR; cTfR ectodomain
T1 chain: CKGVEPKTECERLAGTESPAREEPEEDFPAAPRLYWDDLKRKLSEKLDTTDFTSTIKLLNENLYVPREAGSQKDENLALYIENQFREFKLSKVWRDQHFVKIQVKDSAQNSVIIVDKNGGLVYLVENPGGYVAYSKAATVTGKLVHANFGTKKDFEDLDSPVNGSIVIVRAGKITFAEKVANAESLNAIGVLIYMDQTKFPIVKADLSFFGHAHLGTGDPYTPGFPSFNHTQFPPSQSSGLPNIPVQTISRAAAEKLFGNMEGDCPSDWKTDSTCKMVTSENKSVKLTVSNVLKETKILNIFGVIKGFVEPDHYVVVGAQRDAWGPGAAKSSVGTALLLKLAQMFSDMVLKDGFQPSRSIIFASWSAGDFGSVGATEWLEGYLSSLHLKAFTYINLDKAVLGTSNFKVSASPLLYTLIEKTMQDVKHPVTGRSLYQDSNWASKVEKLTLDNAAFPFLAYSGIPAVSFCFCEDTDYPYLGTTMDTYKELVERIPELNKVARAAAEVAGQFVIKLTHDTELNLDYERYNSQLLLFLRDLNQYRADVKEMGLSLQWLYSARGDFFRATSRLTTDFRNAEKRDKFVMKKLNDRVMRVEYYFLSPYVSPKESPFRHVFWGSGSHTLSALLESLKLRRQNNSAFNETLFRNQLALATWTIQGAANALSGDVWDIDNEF

B1: cTfR: AviTag fused in the N-terminus of the ectodomain of cTfR (amino acid residues 90 to 760 of SEQ ID NO: 2) (receptor)
chain: GSHHHHHHHHGGGGSLNDIFEAQKIEWHGSKGVEPKTECERLAGTESPAREEPEEDFPAAPRLYWDDLKRKLSEKLDTTDFTSTIKLLNENLYVPREAGSQKDENLALYIENQFREFKLSKVWRDQHFVKIQVKDSAQNSVIIVDKNGGLVYLVENPGGYVAYSKAATVTGKLVHANFGTKKDFEDLDSPVNGSIVIVRAGKITFAEKVANAESLNAIGVLIYMDQTKFPIVKADLSFFGHAHLGTGDPYTPGFPSFNHTQFPPSQSSGLPNIPVQTISRAAAEKLFGNMEGDCPSDWKTDSTCKMVTSENKSVKLTVSNVLKETKILNIFGVIKGFVEPDHYVVVGAQRDAWGPGAAKSSVGTALLLKLAQMFSDMVLKDGFQPSRSIIFASWSAGDFGSVGATEWLEGYLSSLHLKAFTYINLDKAVLGTSNFKVSASPLLYTLIEKTMQDVKHPVTGRSLYQDSNWASKVEKLTLDNAAFPFLAYSGIPAVSFCFCEDTDYPYLGTTMDTYKELVERIPELNKVARAAAEVAGQFVIKLTHDTELNLDYERYNSQLLLFLRDLNQYRADVKEMGLSLQWLYSARGDFFRATSRLTTDFRNAEKRDKFVMKKLNDRVMRVEYYFLSPYVSPKESPFRHVFWGSGSHTLSALLESLKLRRQNNSAFNETLFRNQLALATWTIQGAANALSGDVWDIDNEF
modifications: site-specific biotinylation on N-terminal Avitag
notes: Immobilised on streptavidin probes for BLI; also called biotinylated cTfR ectodomain
B2: 531v25Fab-FcOL (other)
heavy: QVQLVQSGAEVKKPGASVKVSCKASGYTFTRYYLNWVRQAPGQGLEWIGMIDPSVSETHYAQKFQGRATLTVDKSTSTAYMELSSLRSEDTAVYYCSQIRLPYYYAMDSWGQGTTVTVSSASTKGPSVFPLAPSSKSTSGGTAALGCLVKDYFPEPVTVSWNSGALTSGVHTFPAVLQSSGLYSLSSVVTVPSSSLGTQTYICNVNHKPSNTKVDKKVEPKSCDKTHTCPPCPAPELLGGPSVFLFPPKPKDTLMISRTPEVTCVVVDVSHEDPEVKFNWYVDGVEVHNAKTKPREEQYNNASRVVSVLTVLHQDWLNGKEYKCKVSNKALPAPIEKTISKAKGQPREPQVCTLPPSRDELTKNQVSLSCAVKGFYPSDIAVEWESNGQPENNYKTTPPVLDSDGSFFLVSKLTVDKSRWQQGNVFSCSVMHEALHNRFTQKSLSLSPG
light: not shown
chain: DKTHTCPPCPAPELLGGPSVFLFPPKPKDTLMISRTPEVTCVVVDVSHEDPEVKFNWYVDGVEVHNAKTKPREEQYNNASRVVSVLTVLHQDWLNGKEYKCKVSNKALPAPIEKTISKAKGQPREPQVYTLPPCRDELTKNQVSLWCLVKGFYPSDIAVEWESNGQPENNYKTTPPVLDSDGSFFLYSKLTVDKSRWQQGNVFSCSVMHEALHNHYTQKSLSLSPG
notes: Monovalent heterotrimer; It has a full IgG1 heavy chain (NNAS, hole, RF), a kappa light chain and an Fc polypeptide (knob) that dimerizes with the heavy chain

How the values were obtained:
[1] = biological target: T2, anti-TfR 531v25-Fab-FcOL-GAA; experiment: BLI (Octet), biotinylated AviTag-TfR ectodomain on streptavidin probes, 1:1 global fit
T2 construct: Monovalent Fab-FcOL with GAA fused to the C-terminus of the Fc polypeptide
From the text: (§1) A 1:1 binding model with global fitting was applied after double subtraction for buffer and probe analyte interaction with a 0-90 second association and 0-60 dissociation window.

[2] = biological target: B1; experiment: BLI; KD on cTfR against KD on hTfR
From the text: as §1

[3] = biological target: T3, hTfR: AviTag fused to the N-terminus of the ectodomain of human TfR (residues 90 to 760 of SEQ ID NO: 1) (human, UniProt P02786 90-760, site-specific biotinylation on N-terminal Avitag); experiment: BLI (Octet), biotinylated AviTag-TfR ectodomain on streptavidin probes, 1:1 global fit
T3 construct: also called biotinylated hTfR ectodomain
From the text: as §1

[4] = biological target: B1; experiment: as above
From the text: as §1

[5] = biological target: T3, hTfR: AviTag fused to the N-terminus of …; experiment: BLI, immobilised hTfR pre-saturated with 500 nM human holo-transferrin (competitor)
From the text: as §1, with “window. […] A 1:1 binding model with global fitting was applied after double subtraction for buffer and probe analyte interaction.” for “window.”

[6] = biological target: B1; experiment: BLI; KD on cTfR against KD on hTfR
From the text: as §1

[7] = biological target: T3, hTfR: AviTag fused to the N-terminus of …; experiment: BLI (Octet), biotinylated AviTag-TfR ectodomain on streptavidin probes, 1:1 global fit; remark: listed apart in the source
From the text: as §1

[8] = biological target: B1; experiment: as above
From the text: as §1

[9] = biological target: T3, hTfR: AviTag fused to the N-terminus of …; experiment: BLI, immobilised AviTag-hTfR ectodomain, no saturation
From the text: as §1, with “window. […] A 1:1 binding model with global fitting was applied after double subtraction for buffer and probe analyte interaction.” for “window.”

[10] = biological target: T1, His-tagged cynomolgus monkey TfR …; experiment: SPR, His-tagged TfR ectodomain captured on anti-His, 1:1 fit
Description: (§2) Binding of the humanized Fab variants to human, cynomolgus and mouse TfR was assessed using SPR at pH 7.4. Experiments were run on a Bruker MASS-2 instrument with HBS-EP+ as running buffer and sample diluent (Cytiva Life Sciences, #BR100826). HCA sensor chips (Bruker, #1862614) were immobilized with anti-His antibody (His capture kit, Cytiva Life Sciences, #28995056) following manufacturer's instructions. About 10,000 RU of anti-His was obtained. His-tagged hTfR ectodomain (SEQ ID NO: 39), cTfR ectodomain (SEQ ID NO: 40) or mouse TfR ectodomain (SEQ ID NO: 41) (5 μg/ml) was captured for 1 min at 10 μL/min. Concentration series of the humanized Fab variants were then injected for 4 min at 30 μL/min over hTfR surfaces and dissociation was monitored for 5 min. Surface was regenerated with one 1 min pulse of 10 mM glycine-HCl at pH 1.5.

[11] = biological target: T4, His-tagged human TfR ectodomain (hTFRC_89-760_G142S; mature protein) (human, UniProt P02786 89-760); experiment: as above
T4 construct: It carries the G142S haplotype; also called hTfR ectodomain
Description: as §2

| Kd [1] [nM] | Cynomolgus/human KD ratio [2] | Kd [3] [nM] | Kd [4] [nM] | Kd [5] [nM] | Cynomolgus/human KD ratio [6] | Kd [7] [nM] | Kd [8] [nM] | Kd [9] [nM] | Kd [10] | Kd [11] | Binder |
| --- | --- | --- | --- | --- | --- | --- | --- | --- | --- | --- | --- |
| 69.9 | – | – | – | – | – | – | – | – | – | – | B1 |
| – | 4.7 | 22.1 | 103 | 44 | 4.7 | 22.1 | 103 | 22.1 | 124 nM and 140 nM and 109 nM | 11.8 nM and 15 nM and 8.5 nM | B2 |
